{"source": "paper PMC10516654", "about": "“Structural and functional characterization of MrpR, the master repressor of the Bacillus subtilis prophage SPβ”", "binders": {"B1": {"name": "aimR promoter ITC duplex (LC292/LC293) (dsDNA)", "DNA 1": "GAATTTTAAAGAGATTACAAATACAAAAAATATGTATAAAATAATTGACTCGTAATG", "DNA 2": "CATTACGAGTCAATTATTTTATACATATTTTTTGTATTTGTAATCTCTTTAAAATTC"}}, "experiment_in_all_cases": "ITC; ITC: 20 mM HEPES-Na pH 7.5, 200 mM NaCl, 20 mM KCl, 25 C, 20 uM DNA in cell, protein in syringe, one set of sites; EMSA: same buffer plus 50 ug/ml herring sperm DNA, 50 nM DNA, RT 15 min, 6% native PAGE 0.5x TBE", "conditions_in_all_cases": "protein: recombinant; tags: C-terminal His6; blunt", "key": {"[1]": {"target": "T1, MrpR G136E (Bacillus subtilis prophage SPβ c2, UniProt O34558 1-325, G136E)", "T1 sequence": "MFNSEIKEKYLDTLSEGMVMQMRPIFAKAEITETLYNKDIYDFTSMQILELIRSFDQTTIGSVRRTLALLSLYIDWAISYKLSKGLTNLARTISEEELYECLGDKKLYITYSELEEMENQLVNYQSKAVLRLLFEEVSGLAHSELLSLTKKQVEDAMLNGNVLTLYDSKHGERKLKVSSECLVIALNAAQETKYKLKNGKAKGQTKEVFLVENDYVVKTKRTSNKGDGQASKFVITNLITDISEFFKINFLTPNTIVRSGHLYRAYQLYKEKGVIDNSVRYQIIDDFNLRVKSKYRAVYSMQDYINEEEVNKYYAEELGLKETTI"}, "[2]": {"target": "T2, MrpR K169A (Bacillus subtilis prophage SPβ, UniProt O34558 1-325, K169A)", "T2 sequence": "T1 sequence with E136G, K169A"}, "[3]": {"target": "T3, MrpR Y304F (Bacillus subtilis prophage SPβ, UniProt O34558 1-325, Y304F)", "T3 sequence": "T1 sequence with E136G, Y304F"}}, "note": "Substitutions are numbered along the chain they refer to.", "data": [{"binder": "B1", "values": [{"measurement": "Kd", "setting": "[1]", "result": "1690 ± 690", "unit": "nM"}, {"measurement": "Kd", "setting": "[2]", "result": "346 ± 150", "unit": "nM"}, {"measurement": "Kd", "setting": "[3]", "result": "1340 ± 500", "unit": "nM"}]}]}
